Starred links: 1 amine or outer side, 2 acyl side, 3 side chain; linkers in the order of their positions; H or OH if unused. Positions of bridges follow the written chain, without caps; N, C: chain ends. Non-standard residues stand in square brackets, D forms with d. TBMB = c1c(C[*:1])cc(C[*:3])cc1C[*:2]; NMeR = CN[C@@H](CCCNC(=N)N)C(=O)O
Molecular target: kallikrein (UniProt P03952 20-638, limits assumed)
Assay: cell-based or functional assay

kallikrein, sequence (P03952 20-638 limits assumed): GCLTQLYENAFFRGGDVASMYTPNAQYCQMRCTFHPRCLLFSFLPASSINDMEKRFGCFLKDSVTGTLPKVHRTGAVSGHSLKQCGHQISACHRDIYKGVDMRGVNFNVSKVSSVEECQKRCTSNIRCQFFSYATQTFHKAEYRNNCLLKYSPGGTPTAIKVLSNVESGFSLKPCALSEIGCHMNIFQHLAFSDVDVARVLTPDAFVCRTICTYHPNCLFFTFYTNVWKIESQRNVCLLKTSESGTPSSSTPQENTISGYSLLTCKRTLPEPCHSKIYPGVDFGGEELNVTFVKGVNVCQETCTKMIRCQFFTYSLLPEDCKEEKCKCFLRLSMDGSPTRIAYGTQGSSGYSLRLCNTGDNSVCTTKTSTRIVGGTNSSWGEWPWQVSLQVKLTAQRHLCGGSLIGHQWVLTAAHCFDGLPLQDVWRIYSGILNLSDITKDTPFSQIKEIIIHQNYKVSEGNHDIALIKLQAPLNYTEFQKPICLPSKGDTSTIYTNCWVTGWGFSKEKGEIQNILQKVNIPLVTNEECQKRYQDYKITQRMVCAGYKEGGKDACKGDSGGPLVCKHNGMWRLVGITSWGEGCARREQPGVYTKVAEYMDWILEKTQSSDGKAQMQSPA

Binder	inhibition of kallikrein activity (IC50, substrate Z-Phe-Arg-amc, fluorescence) [µM]
H-ACSDRFRNCPADEALCG-OH (linker 2-9-16 via TBMB; also: reduced peptide bond Y[CH2NH] between Phe6 and Arg7) [H-ACSDRF Y[CH2NH] RNCPADEALCG-OH (reduced peptide bond variant of PK15), TBMB conjugate]	16.6
H-ACSDR[dF]RNCPADEALCG-OH (linker 2-9-16 via TBMB) [H-ACSDRfRNCPADEALCG-OH (D-Phe variant of PK15), TBMB conjugate]	4
H-ACSDRF[NMeR]NCPADEALCG-OH (linker 2-9-16 via TBMB) [H-ACSDRF-(NMeArg)-NCPADEALCG-OH (N-methyl-arginine variant of PK15), TBMB conjugate]	3.1
